From patent US20140127777A1 (CALIFORNIA INSTITUTE OF TECHNOLOGY, published 2014)

B1: A1-WT (designed binder)
chain: MRGSHHHHHHGSMASGDLENEYAQLEREVRSLEDEAAELEQKVSRLKNEIEDLAEIGDLNNTSGIRRPAAKLN
notes: Expressed in E. coli from pQE-A1 with an N-terminal His-tag; Forms dimeric coiled coils; entered as the single chain; also called wild-type A1
B2: FA1-92 (designed binder)
chain: B1 chain
modifications: leucines (eight per chain) replaced by 5,5,5-trifluoroleucine to 92% by amino acid analysis; mixed population of (2S,4S) and (2S,4R) diastereomers
notes: Expressed in an E. coli leucine auxotroph in medium with trifluoroleucine; The sample is heterogeneous; its main MALDI peak of 8736 corresponds to 8 substitutions; also called 92% fluorinated A1

What was measured:
[1] = target: the molecule itself; assay: CD thermal unfolding, global two-state fit of the monomer to dimer transition, 1 M standard state
Experimental: Circular Dichroism (CD) Analysis. CD spectra were recorded on an Aviv 62DS spectropolarimeter (Lakewood, N.J.) in PBS buffer, pH 7.4. All peptide concentrations were determined by amino acid analysis of a stock solution (5 mg/ml). Experiments were performed in a rectangular cell with pathlength of 1 cm for low concentration samples and pathlength of 1 mm for high concentration samples. Spectra were scanned from 250 nm to 200 nm with data taken every 1 nm. The temperature of the solution was maintained by a thermostatically controlled cuvette holder (HP model 89101A). Temperature scans were performed from 0° C. to 100° C. in 1° C. steps. Three scans were performed on a single sample and averaged. Each data point was collected after 30 seconds of thermal equilibration at the desired temperature. Urea titration scans were performed manually starting with the 8 M concentrated sample followed by serial dilution to the desired urea concentration. At each concentration, the sample was allowed to equilibrate for 5 min before recording the CD signal.

[2] = target: the molecule itself; assay: CD thermal unfolding, global two-state fit of the monomer to dimer transition; difference against A1-WT at 37 °C

Protein	ΔG° (37° C.) [1] [kcal/mol]	ΔΔG° [2] [kcal/mol]
B1	-10.7	–
B2	-13.1	-2.4
